Earlier results on one substance are cited in PMC8444577.

One may read the Kd as a measure of binding affinity in units of concentration.

In the data set the target is IL-18 (Homo sapiens) (UniProt Q14116).
Sequence of IL-18 (Homo sapiens) (Q14116 37-193): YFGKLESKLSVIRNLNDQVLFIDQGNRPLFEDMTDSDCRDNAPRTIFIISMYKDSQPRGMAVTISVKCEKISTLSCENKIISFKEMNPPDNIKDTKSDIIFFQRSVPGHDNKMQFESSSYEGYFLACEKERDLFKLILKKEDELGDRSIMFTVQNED

Sequence of IL-18BP (O95998 31-194): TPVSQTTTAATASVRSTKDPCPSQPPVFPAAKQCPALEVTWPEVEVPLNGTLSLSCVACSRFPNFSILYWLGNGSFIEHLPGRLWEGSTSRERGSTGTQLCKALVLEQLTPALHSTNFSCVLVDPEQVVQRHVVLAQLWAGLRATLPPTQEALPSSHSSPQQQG

Turning to IL-18BP (from UniProt O95998), the Kd is 0.4 nM.
